Molecular target: the molecule itself
Assay: native gel or EMSA; gB before encapsulation and gB released from nanoparticles, analysed under native non-reducing conditions (Fig. S5A)

B1: EBV gB ectodomain (residues 22 to 672, fusion-loop residues replaced with HSV-1 residues), 6x His tag (domain or fragment)
chain: AQTPEQPAPPATTVQPTATRQQTSFPFRVCELSSHGDLFRFSSDIQCPSFGTRENHTEGLLMVFKDNIIPYSFKVRSYTKIVTNILIYNGHRADSVTNRHEEKFSVDSYETDQMDTIYQCYNAVKMTKDGLTRVYVDRDGVNITVNLKPTGGLANGVRRYASQTELYDAPGRVEATYRTRTTVNCLITDMMAKSNSPFDFFVTTTGQTVEMSPFYDGKNKETFHERADSFHVRTNYKIVDYDNRGTNPQGERRAFLDKGTYTLSWKLENRTAYCPLQHWQTFDSTIATETGKSIHFVTDEGTSSFVTNTTVGIELPDAFKCIEEQVNKTMHEKYEAVQDRYTKGQEAITYFITSGGLLLAWLPLTPRSLATVKNLTELTTPTSSPPSSPSPPAPSAARGSTPAAVLRRRRRDAGNATTPVPPTAPGKSLGTLNNPATVQIQFAYDSLRRQINRMLGDLARAWCLEQKRQNMVLRELTKINPTTVMSSIYGKAVAAKRLGDVISVSQCVPVNQATVTLRKSMRVPGSETMCYSRPLVSFSFINDTKTYEGQLGTDNEIFLTKKMTEVCQATSQYYFQSGNEIHVYNDYHHFKTIELDGIATLQTFISLNTSLIENIDFASLELYSRDEQRASNVFDLEGIFREYNFQAQNIA
notes: Epstein-Barr virus glycoprotein B (gB), ectodomain residues 22 to 672, PCR-amplified from the EBV M81 strain (GenBank KF373730.1); WY112-113 and WLIW193-196 replaced with HSV-1 residues HR177-178 and RVEA258-261; Tested both before encapsulation and after release from the nanoparticles; also called glycoprotein B; fusogen gB; source: 293F cells, transiently transfected (pCDNA3.1-gB), purified …
stoichiometry N: 3

Reference: article PMC11192767, “A cocktail nanovaccine targeting key entry glycoproteins elicits high neutralizing antibody levels against EBV infection” (Nature Communications, 2024)
